In US9518268B2, “Drought tolerant transgenic plants and method of making same” (PURDUE RESEARCH FOUNDATION, priority 2013, dated 2016):

T1: PP2CA (Arabidopsis thaliana, UniProt P49598)
T1 construct: GST (N, cleaved yes); made in house; host or cells: Escherichia coli BL21 (DE3.0)
T1 sequence (P49598 1-399): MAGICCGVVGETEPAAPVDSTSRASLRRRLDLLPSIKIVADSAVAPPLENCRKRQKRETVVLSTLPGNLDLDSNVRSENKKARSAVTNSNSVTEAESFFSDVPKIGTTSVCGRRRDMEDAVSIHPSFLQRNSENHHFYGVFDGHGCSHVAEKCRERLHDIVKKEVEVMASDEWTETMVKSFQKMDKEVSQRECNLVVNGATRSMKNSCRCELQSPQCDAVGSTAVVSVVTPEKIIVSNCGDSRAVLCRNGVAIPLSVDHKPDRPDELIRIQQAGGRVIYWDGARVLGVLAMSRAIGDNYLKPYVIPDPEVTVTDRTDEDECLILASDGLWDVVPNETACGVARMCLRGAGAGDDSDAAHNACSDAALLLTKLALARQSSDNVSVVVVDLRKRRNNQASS
T1 sequence (Q9SN51 1-164 partner): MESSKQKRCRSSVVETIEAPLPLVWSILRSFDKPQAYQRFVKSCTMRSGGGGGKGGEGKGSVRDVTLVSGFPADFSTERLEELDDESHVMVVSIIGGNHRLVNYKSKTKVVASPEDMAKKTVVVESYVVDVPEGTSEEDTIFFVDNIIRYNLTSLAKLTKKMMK

T2: ABI2 (Arabidopsis thaliana, UniProt O04719)
T2 construct: GST (N, cleaved yes); made in house; host or cells: Escherichia coli BL21 (DE3.0)
T2 sequence (O04719 1-423): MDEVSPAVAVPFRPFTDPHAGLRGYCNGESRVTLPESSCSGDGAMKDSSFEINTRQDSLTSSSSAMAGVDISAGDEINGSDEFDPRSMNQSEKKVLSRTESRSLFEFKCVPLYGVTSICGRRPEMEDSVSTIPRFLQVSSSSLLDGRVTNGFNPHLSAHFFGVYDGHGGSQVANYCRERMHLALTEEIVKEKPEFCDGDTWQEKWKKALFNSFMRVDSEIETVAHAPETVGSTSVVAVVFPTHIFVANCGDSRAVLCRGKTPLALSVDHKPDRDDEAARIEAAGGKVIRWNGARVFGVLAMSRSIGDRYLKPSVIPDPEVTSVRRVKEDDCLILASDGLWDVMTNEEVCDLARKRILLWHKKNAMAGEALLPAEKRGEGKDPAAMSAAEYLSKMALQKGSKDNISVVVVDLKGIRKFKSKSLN

T3: ABI1 (Arabidopsis thaliana, UniProt P49597)
T3 construct: GST (N, cleaved yes); made in house; host or cells: Escherichia coli BL21 (DE3.0)
T3 sequence (P49597 1-434): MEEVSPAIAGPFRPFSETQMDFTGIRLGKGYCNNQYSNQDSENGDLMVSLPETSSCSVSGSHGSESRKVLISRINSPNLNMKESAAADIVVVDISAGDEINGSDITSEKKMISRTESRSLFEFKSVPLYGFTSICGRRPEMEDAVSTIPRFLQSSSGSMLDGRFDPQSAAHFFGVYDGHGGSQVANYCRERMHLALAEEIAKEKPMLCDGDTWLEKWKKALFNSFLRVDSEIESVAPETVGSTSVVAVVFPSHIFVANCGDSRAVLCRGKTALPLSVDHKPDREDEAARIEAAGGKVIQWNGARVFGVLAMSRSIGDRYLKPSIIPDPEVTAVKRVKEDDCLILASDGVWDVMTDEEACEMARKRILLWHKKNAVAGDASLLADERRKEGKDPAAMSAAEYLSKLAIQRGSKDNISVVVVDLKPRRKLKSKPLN

B1: PYL13: Arabidopsis thaliana PYR/PYL/RCAR family protein PYL13, SEQ ID NO: 1 (protein, listed as Arabidopsis thaliana)
chain: T1 sequence (Q9SN51 1-164 partner)

How the values were obtained:
Experiment in all cases: Phosphatase activity assay (pNPP) with purified PP2Cs and PYLs
ABI1 [1] = format: biochemical, Arabidopsis thaliana; settings: in the presence of 10 μM ABA; ABI1 and PYLs 0.3 μM
Procedure: (§1) The inhibition by PYL13 is ABA-independent, whereas the inhibition by PYR1 and PYL2 is ABA-induced (FIG. 4B). […] The phosphatase activities of PP2CA, ABI1, and ABI2 were measured in the absence or presence of ABA (1.25 μM), and with or without PYLs. The concentration of PP2Cs and PYLs was 0.3 μM. The A405 value of reaction without PP2C was set as 0% and that of the reaction with PP2C but without ABA and PYLs was set as 100%. Error bars indicate s.e.m. (n=6 for PP2CA and ABI2, and n=3 for ABI1).
(§2) To test the functional significance of potential heterodimer formation between PYL13 and other PYLs, the abilities of PYL1 and PYL2 and the protein complexes PYL13-PYL1 and PYL13-PYL2 to inhibit the phosphatase activity of ABI1 were compared using purified recombinant proteins and the synthetic phosphatase substrate pNPP. […] The phosphatase activity of ABI1 was measured (using pNPP) in the absence or presence of 10 μM ABA, with or without PYLs, and with PYL13-PYL dimers. The concentration of ABI1 and PYLs was 0.3 μM. The A405 value of reaction without ABI1 was set as 0% and that of the reaction with ABI1 but without ABA and PYLs was set as 100%. Error bars indicate s.e.m. (n=6). In the presence of 10 μM ABA, ABI1 phosphatase activity was reduced to 67±6% by PYL1 but only to 88±8% by PYL13-PYL1. In the presence of 10 μM ABA, ABI1 phosphatase activity was reduced to 50±3% by PYL2 but only to 78±10% by PYL13-PYL2.
(§3) Phosphatase activity was measured using the colorimetric substrate p-nitrophenyl phosphate (pNPP, SIGMA). Reactions were performed in a reaction buffer containing 50 mM Tris-HCl, pH 7.5, 25 mM Mg(OAc)2, 2 mM MnCl2, 0.5 mM EGTA, 0.5% β-mercaptoethanol, and 0.5% BSA. ABA and PYLs were added as indicated. The concentration of PP2Cs and PYLs was 0.3 μM. Reactions were initiated by the addition of pNPP to a final concentration of 50 mM. The hydrolysis of pNPP was measured by following the absorbance at 405 nm (A405). Because His-PYL13 is difficult to purify, is prone to degradation, and rapidly loses activity, newly purified PYL13 was used for the phosphatase activity assay.

PP2CA = target: T1, PP2CA; format: biochemical; settings: PP2Cs and PYLs 0.3 μM
Procedure: as §1, §3

ABI2 = target: T2, ABI2; format: biochemical; settings: PP2Cs and PYLs 0.3 μM
Procedure: as §1, §3

ABI1 [2] = target: T3, ABI1; format: biochemical; settings: PP2Cs and PYLs 0.3 μM
Procedure: as §1, §2, §3

Molecule	ABI1 phosphatase activity reduced to (ABI1 [1]) [%]	PP2CA phosphatase activity reduced to (PP2CA; with 1.25 μM ABA) [%]	PP2CA phosphatase activity reduced to (PP2CA; without ABA, PP2C without ABA and PYLs = 100%) [%]	ABI2 phosphatase activity reduced to (ABI2; with 1.25 μM ABA) [%]	ABI2 phosphatase activity reduced to (ABI2; without ABA) [%]	ABI1 phosphatase activity reduced to (ABI1 [2]; with 1.25 μM ABA) [%]	ABI1 phosphatase activity reduced to (ABI1 [2]; without ABA) [%]
PYL2: Arabidopsis thaliana PYL family ABA receptor protein PYL2, AT2G26040	50±3	–	–	–	–	–	–
B1	–	54±5	55±5	93±6	89±8	75±3	75±3
